Test results as given in publication PMC5001929 (Cell reports, 2016).

T1: Gremlin-2 (UniProt O88273 22-168)
T1 sequence: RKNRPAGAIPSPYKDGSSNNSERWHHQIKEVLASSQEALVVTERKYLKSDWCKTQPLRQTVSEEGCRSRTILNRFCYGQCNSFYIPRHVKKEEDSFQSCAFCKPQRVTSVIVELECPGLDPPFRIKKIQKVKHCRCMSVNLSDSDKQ


Biological target: T1, Gremlin-2
Assay: SPR

| Kd [nM] | Binder |
| --- | --- |
| 9 | BMP2 (ligand, UniProt P12643 283-396, looked up) QAKHKQRKRLKSSCKRHPLYVDFSDVGWNDWIVAPPGYHAFYCHGECPFPLADHLNSTNHAIVQTLVNSVNSKIPKACCVPTELSAISMLYLDENEKVVLKNYQDMVVEGCGCR |
| 146 | GDF5 (ligand, UniProt P43026 382-501, looked up) APLATRQGKRPSKNLKARCSRKALHVNFKDMGWDDWIIAPLEYEAFHCEGLCEFPLRSHLEPTNHAVIQTLMNSMDPESTPPTCCVPTRLSPISILFIDSANNVVYKQYEDMVVESCGCR |
